Measured values: patent US20150299255A1

Biological target: lectin SNA1 from Sambucus nigra (Sambucus nigra), Q41358
Experiment: solid-phase assay, peptide titrated into wells containing bound lectin (FIG. 7)

lectin SNA1 from Sambucus nigra (Sambucus nigra), Q41358, sequence (Q41358 29-289 limits assumed, chain 1 of 2): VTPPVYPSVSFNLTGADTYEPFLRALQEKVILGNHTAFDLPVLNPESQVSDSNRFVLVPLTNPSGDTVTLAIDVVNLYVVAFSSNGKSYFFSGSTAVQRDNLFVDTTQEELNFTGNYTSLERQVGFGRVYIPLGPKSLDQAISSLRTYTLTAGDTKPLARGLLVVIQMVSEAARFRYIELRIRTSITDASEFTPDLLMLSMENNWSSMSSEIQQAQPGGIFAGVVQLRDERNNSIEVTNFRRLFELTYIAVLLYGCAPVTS
lectin SNA1 from Sambucus nigra (Sambucus nigra), Q41358, sequence (Q41358 309-570 limits assumed, chain 2 of 2): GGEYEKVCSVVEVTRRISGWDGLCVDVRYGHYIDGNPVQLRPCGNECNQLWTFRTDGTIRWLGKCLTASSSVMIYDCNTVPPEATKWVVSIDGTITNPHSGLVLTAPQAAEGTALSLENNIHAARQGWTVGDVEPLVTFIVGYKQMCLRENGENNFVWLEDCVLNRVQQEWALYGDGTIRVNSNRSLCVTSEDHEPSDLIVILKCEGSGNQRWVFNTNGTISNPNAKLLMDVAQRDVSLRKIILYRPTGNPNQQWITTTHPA

B1: biotinylated quadravalent SVH1C (peptide)
peptide: NPSHPLSGGGGS
chain: KKKK
modifications: not checked
- amount of peptide at half-maximal binding (pmoles peptide per well): 25
